# Source: paper PMC11045720, “Denaturing mass photometry for rapid optimization of chemical protein-protein cross-linking reactions” (Nature Communications, 2024)
# Target: the molecule itself
# Assay: cross-linking; formaldehyde 0.05% to 1% (vol/vol) on 1 mg/mL protein, 20 min at room temperature; read by denaturing mass photometry
protein,measurement,value
"L-Glutamate dehydrogenase from bovine liver (enzyme, L-Glutamate dehydrogenase from bovine liver (Sigma); also called GLDH; source: bought: Sigma (from bovine liver)) not shown",stoichiometry N,6
